Test results taken from patent publication US20170114140A1.
Several values for one entry are separate records, joined by “and”; a condition that tells them apart may be missing. Equal values may be shown once. Blank lines part the entries; values can stand above or below the substance they belong to.

Key:
Experiment in all cases: cell-based or functional assay
[1] = target: IL-25 (R&D Systems) used to restimulate human PBMC (UniProt Q9H293)
[2] = target: human IL-17RB on human PBMC (human) (UniProt Q9NRM6)
[3] = target: human IL-17RA on cells (human PBMC; human foreskin fibroblasts) (human) (UniProt Q96F46)

Sequence of IL-25 (R&D Systems) used to restimulate human PBMC (Q9H293 33-177 limits assumed): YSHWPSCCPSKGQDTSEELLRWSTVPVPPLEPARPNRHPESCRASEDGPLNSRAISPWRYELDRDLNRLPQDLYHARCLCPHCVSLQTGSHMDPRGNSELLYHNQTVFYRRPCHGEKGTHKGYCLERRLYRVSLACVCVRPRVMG
Sequence of human IL-17RB on human PBMC (human) (Q9NRM6 18-502): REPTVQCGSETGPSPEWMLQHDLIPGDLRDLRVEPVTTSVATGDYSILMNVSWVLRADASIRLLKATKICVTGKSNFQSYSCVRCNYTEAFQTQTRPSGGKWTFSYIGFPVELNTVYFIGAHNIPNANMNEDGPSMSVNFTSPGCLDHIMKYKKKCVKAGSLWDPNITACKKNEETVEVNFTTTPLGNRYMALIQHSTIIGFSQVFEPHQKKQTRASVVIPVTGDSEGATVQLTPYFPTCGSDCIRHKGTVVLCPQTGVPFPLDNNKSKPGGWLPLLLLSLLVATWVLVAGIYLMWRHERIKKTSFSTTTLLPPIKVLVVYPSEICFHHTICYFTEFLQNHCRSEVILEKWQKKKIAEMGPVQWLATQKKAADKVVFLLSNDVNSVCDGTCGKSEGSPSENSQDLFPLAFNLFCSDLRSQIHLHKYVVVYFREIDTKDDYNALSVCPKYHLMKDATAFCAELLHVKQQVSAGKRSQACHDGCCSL

- % Inhibition of IL-5 production (TSLP treated human PBMC + IL-2 + IL-25), inhibitor 10 micrograms/mL [1]: 67%
Substance: HuIL-17RB: HIS (extracellular region of human IL-17RB fused to poly HIS) (from UniProt Q9NRM6 18-292) (receptor)

- % Inhibition of IL-5 production (TSLP treated human PBMC + IL-2 + IL-25), inhibitor 10 micrograms/mL [2]: 13%
Substance: MAB1207: anti-HuIL-17RB MuIgG2b (R&D Systems) (antibody)

- % Inhibition of IL-5 production (TSLP treated human PBMC + IL-2 + IL-25), inhibitor 10 micrograms/mL [3]: 24% and 33%
Substance: MAB1771: anti-HuIL-17RA MuIgG2b (R&D Systems) (antibody)
